Data on 5 molecules can be found in patent US20130095097A1 (EMERGENT PRODUCT DEVELOPMENT SEATTLE, published 2013).

The target of one experiment is T1, CD28 on Jurkat T cells (UniProt P10747 19-220, limits assumed).
T1 construct: whole, on cells; also called Jurkat cells; Jurkat T cell lines
As to the kind of experiment: flow cytometry on Jurkat cells. On the technique in general: In flow cytometry, cells or beads pass a laser one at a time.

For experiment [1], the target named is T2, CD28 mIg (UniProt P10747 19-152). In words: SPR, CD28-mIgG immobilized, 1:1 Langmuir model, ka (I). As to the method:
(§1) Surface plasmon resonance (SPR) measurements were performed on a Biacore T100 SPR using HBS-P+ (GE Healthcare) as a running buffer. CD28-mIgG (25 μg/mL in 10 mM sodium acetate, pH 4.0) was directly immobilized onto a CM5 chip using standard amine coupling chemistry (Biacore Amine Coupling Kit, GE Healthcare), with final immobilization levels between 800 and 1900 Ru (resonance units). 2E12 binding domain constructs were injected at 25° C. or 37° C. for 150 seconds at a flow rate of 30 μl/min in a series of concentrations from 10 nM to 1 μM. Dissociation was monitored for 1200 seconds, and the surface was regenerated by injecting 50 mM NaOH for 60 seconds. Binding interactions with the surface were stable through at least 60 regeneration cycles. Data were analyzed using BiaEvaluation for the T100 software (version 2.0, GE Healthcare).
(§2) Surface plasmon resonance was used to measure binding of immobilized CD28 by 2E12 binding domain constructs. […] Binding kinetics of the bivalent 2E12 constructs (e.g., 2E12 mAb, FIGS. 27A-27B) to immobilized CD28 could not be fit to a 1:1 Langmuir binding model, but could be fit with high accuracy to a bivalent analyte binding model (Table 5). Equilibrium dissociation constants (1(D) could be calculated with high accuracy for each construct by fitting the observed response at saturation to a steady-state equilibrium model (Table 5).
A general note: Surface plasmon resonance follows binding to a sensor surface in real time, without labels.

Experiment [2] addresses T2, CD28 mIg. As to the kind of experiment: SPR, CD28-mIgG immobilized, 1:1 Langmuir model, kd (I). How it is done:
as §1, §2

In experiment [3] the target is T2, CD28 mIg. As to the kind of experiment: SPR, CD28-mIgG immobilized, kinetic KD (kd (I)/ka (I)). How it is done:
as §1, §2

Experiment [4] addresses T2, CD28 mIg. As to the kind of experiment: SPR, CD28-mIgG immobilized, steady-state equilibrium KD. As to the method: as §1, §2
Experiment [5] addresses T3, CD28 mIg (UniProt P10747 19-152).
T3 construct: Coated on ELISA plates and amine-coupled to a CM5 chip; also called CD28-mIgG; immobilized CD28
In words: SPR, CD28-mIgG immobilized; reference 2E12 SMIP (M0039). How it is done: as §1, §2

Experiment [6] deals with T3, CD28 mIg. In words: SPR, CD28-mIgG immobilized, steady-state equilibrium KD. As to the method:
as §1, §2

Experiment [7] addresses T3, CD28 mIg. As to the kind of experiment: SPR, CD28-mIgG immobilized, bivalent analyte model, first on rate ka (I). As to the method: as §1, §2
Experiment [8] has as its target T3, CD28 mIg. As to the kind of experiment: SPR, CD28-mIgG immobilized, bivalent analyte model, first off rate kd (I). As to the method:
as §1, §2

For experiment [9], the target named is T3, CD28 mIg. In words: SPR, CD28-mIgG immobilized, bivalent analyte model, second on rate (avidity). On the set-up: unit not given here. As to the method: as §1, §2
The target in experiment [10] is T3, CD28 mIg. As to the kind of experiment: SPR, CD28-mIgG immobilized, bivalent analyte model, second off rate (avidity). How it is done:
as §1, §2

The target in experiment [11] is T3, CD28 mIg. As to the kind of experiment: SPR, CD28-mIgG immobilized, kinetic KD, bivalent analyte model, initial binding at the first site only. How it is done:
as §1, §2

B1: Interceptor X0128 (X0120 + X0121) (other)
chain 1: QVQLKESGPGSVAPSQSLSITCTVSGFSLTGYGVNWVRQPPGKGLEWLGMIWGDGSTDYNSALKSRLSITKDNSKSQVFLKMNSLQTDDTARYYCARDGYSNFHYYVMDYWGQGTSVTVSSGGGGSGGGGSGGGGSGGGGSDIVLTQSPASLAVSLGQRATISCRASESVEYYVTSLMQWYQQKPGQPPKLLISAASNVESGVPARFSGSGSGTDFSLNIHPVEEDDIAMYFCQQSRKVPWTFGGGTKLEIKSSSASTKGPSVFPLAPSSKSTSGGTAALGCLVKDYFPEPVTVSWNSGALTSGVHTFPAVLQSSGLYSLSSVVTVPSSSLGTQTYICNVNHKPSNTKVDKKVRTEPKSSDKTHTCPPCPSGAPELLGGPSVFLFPPKPKDTLMISRTPEVTCVVVDVSHEDPEVKFNWYVDGVEVHNAKTKPREEQYNSTYRVVSVLTVLHQDWLNGKEYKCKVSNKALPAPIEKTISKAKGQPREPQVYTLPPSRDELTKNQVSLTCLVKGFYPSDIAVEWESNGQPENNYKTTPPVLDSDGSFFLYSKLTVDKSRWQQGNVFSCSVMHEALHNHYTQKSLSLSPGKSRASTKGPSVFPLAPSSKSTSGGTAALGCLVKDYFPEPVTVSWNSGALTSGVHTFPAVLQSSGLYSLSSVVTVPSSSLGTQTYICNVNHKPSNTKVDKKV
chain 2: TVAAPSVFIFPPSDEQLKSGTASVVCLLNNFYPREAKVQWKVDNALQSGNSQESVTEQDSKDSTYSLSSTLTLSKADYEKHKVYACEVTHQGLSSPVTKSFNRGERTEPKSSDKTHTCPPCPSGAPELLGGPSVFLFPPKPKDTLMISRTPEVTCVVVDVSHEDPEVKFNWYVDGVEVHNAKTKPREEQYNSTYRVVSVLTVLHQDWLNGKEYKCKVSNKALPAPIEKTISKAKGQPREPQVYTLPPSRDELTKNQVSLTCLVKGFYPSDIAVEWESNGQPENNYKTTPPVLDSDGSFFLYSKLTVDKSRWQQGNVFSCSVMHEALHNHYTQKSLSLSPGKSRTVAAPSVFIFPPSDEQLKSGTASVVCLLNNFYPREAKVQWKVDNALQSGNSQESVTEQDSKDSTYSLSSTLTLSKADYEKHKVYACEVTHQGLSSPVTKSFNRGE
As for B1, the binding result in the experiment with CD28 on Jurkat T cells is “binds”.

B2: Interceptor X0132 (X0130 + X0131) (other)
chain 1: QVQLKESGPGSVAPSQSLSITCTVSGFSLTGYGVNWVRQPPGKGLEWLGMIWGDGSTDYNSALKSRLSITKDNSKSQVFLKMNSLQTDDTARYYCARDGYSNFHYYVMDYWGQGTSVTVSSGGGGSGGGGSGGGGSGGGGSDIVLTQSPASLAVSLGQRATISCRASESVEYYVTSLMQWYQQKPGQPPKLLISAASNVESGVPARFSGSGSGTDFSLNIHPVEEDDIAMYFCQQSRKVPWTFGGGTKLEIKSSSASTKGPSVFPLAPSSKSTSGGTAALGCLVKDYFPEPVTVSWNSGALTSGVHTFPAVLQSSGLYSLSSVVTVPSSSLGTQTYICNVNHKPSNTKVDKKVRTEPKSSDKTHTCPPCPSGAPELLGGPSVFLFPPKPKDTLMISRTPEVTCVVVDVSHEDPEVKFNWYVDGVEVHNAKTKPREEQYNSTYRVVSVLTVLHQDWLNGKEYKCKVSNKALPAPIEKTISKAKGQPREPQVYTLPPSRDELTKNQVSLTCLVKGFYPSDIAVEWESNGQPENNYKTTPPVLDSDGSFFLYSKLTVDKSRWQQGNVFSCSVMHEALHNHYTQKSLSLSPGKSRTVAAPSVFIFPPSDEQLKSGTASVVCLLNNFYPREAKVQWKVDNALQSGNSQESVTEQDSKDSTYSLSSTLTLSKADYEKHKVYACEVTHQGLSSPVTKSFNRGE
chain 2: TVAAPSVFIFPPSDEQLKSGTASVVCLLNNFYPREAKVQWKVDNALQSGNSQESVTEQDSKDSTYSLSSTLTLSKADYEKHKVYACEVTHQGLSSPVTKSFNRGERTEPKSSDKTHTCPPCPSGAPELLGGPSVFLFPPKPKDTLMISRTPEVTCVVVDVSHEDPEVKFNWYVDGVEVHNAKTKPREEQYNSTYRVVSVLTVLHQDWLNGKEYKCKVSNKALPAPIEKTISKAKGQPREPQVYTLPPSRDELTKNQVSLTCLVKGFYPSDIAVEWESNGQPENNYKTTPPVLDSDGSFFLYSKLTVDKSRWQQGNVFSCSVMHEALHNHYTQKSLSLSPGKSRASTKGPSVFPLAPSSKSTSGGTAALGCLVKDYFPEPVTVSWNSGALTSGVHTFPAVLQSSGLYSLSSVVTVPSSSLGTQTYICNVNHKPSNTKVDKKV
notes: also called Heterodimer 2 (X0132)
Usually kon stands for the rate constant with which the complex forms. By koff is commonly meant a measure of how fast the partners let go of each other. Consider B2, for which the binding result with CD28 on Jurkat T cells is “binds”. The kon in the experiment with CD28 mIg [1] came out at 149000 M⁻¹ s⁻¹. This molecule also registered a koff in the experiment with CD28 mIg [2] of 0.0065 s⁻¹. For the same molecule, the Kd with CD28 mIg [3] stood at 43.7 nM; with CD28 mIg [4], 134 nM.

B3: Interceptor X0124 (X0112 + X0113) (other)
chain 1: QVQLKESGPGSVAPSQSLSITCTVSGFSLTGYGVNWVRQPPGKGLEWLGMIWGDGSTDYNSALKSRLSITKDNSKSQVFLKMNSLQTDDTARYYCARDGYSNFHYYVMDYWGQGTSVTVSSGGGGSGGGGSGGGGSGGGGSDIVLTQSPASLAVSLGQRATISCRASESVEYYVTSLMQWYQQKPGQPPKLLISAASNVESGVPARFSGSGSGTDFSLNIHPVEEDDIAMYFCQQSRKVPWTFGGGTKLEIKSSSASTKGPSVFPLAPSSKSTSGGTAALGCLVKDYFPEPVTVSWNSGALTSGVHTFPAVLQSSGLYSLSSVVTVPSSSLGTQTYICNVNHKPSNTKVDKKVRTEPKSSDKTHTCPPCPSGAPELLGGPSVFLFPPKPKDTLMISRTPEVTCVVVDVSHEDPEVKFNWYVDGVEVHNAKTKPREEQYNSTYRVVSVLTVLHQDWLNGKEYKCKVSNKALPAPIEKTISKAKGQPREPQVYTLPPSRDELTKNQVSLTCLVKGFYPSDIAVEWESNGQPENNYKTTPPVLDSDGSFFLYSKLTVDKSRWQQGNVFSCSVMHEALHNHYTQKSLSLSPGK
chain 2: TVAAPSVFIFPPSDEQLKSGTASVVCLLNNFYPREAKVQWKVDNALQSGNSQESVTEQDSKDSTYSLSSTLTLSKADYEKHKVYACEVTHQGLSSPVTKSFNRGERTEPKSSDKTHTCPPCPSGAPELLGGPSVFLFPPKPKDTLMISRTPEVTCVVVDVSHEDPEVKFNWYVDGVEVHNAKTKPREEQYNSTYRVVSVLTVLHQDWLNGKEYKCKVSNKALPAPIEKTISKAKGQPREPQVYTLPPSRDELTKNQVSLTCLVKGFYPSDIAVEWESNGQPENNYKTTPPVLDSDGSFFLYSKLTVDKSRWQQGNVFSCSVMHEALHNHYTQKSLSLSPGK
notes: Monovalent anti-CD28 polypeptide heterodimer; After protein A alone the preparation also holds X0113 homodimer; also called Heterodimer 1 (X0124); X00124
Regarding B3, the kon in the experiment with CD28 mIg [1] is 141000 M⁻¹ s⁻¹. Further, the koff with CD28 mIg [2] amounted to 0.00497 s⁻¹. Further, the Kd with CD28 mIg [3] worked out at 35.2 nM; with CD28 mIg [4], 104 nM.

B4: 2E12 monoclonal antibody (mAb) (antibody, V domains shown)
VH: QVQLKESGPGSVAPSQSLSITCTVSGFSLTGYGVNWVRQPPGKGLEWLGMIWGDGSTDYNSALKSRLSITKDNSKSQVFLKMNSLQTDDTARYYCARDGYSNFHYYVMDYWGQGTSVTVSS
VL: DIVLTQSPASLAVSLGQRATISCRASESVEYYVTSLMQWYQQKPGQPPKLLISAASNVESGVPARFSGSGSGTDFSLNIHPVEEDDIAMYFCQQSRKVPWTFGGGTKLEIK
notes: also called 2E12 mAb; 2E12 Mab
For the molecule B4, the “fold affinity difference against the 2E12 SMIP” value with CD28 mIg [5] was 2 fold. Also, the Kd amounted to 11.4 nM with CD28 mIg [6] and 6 nM with CD28 mIg [11]. In addition, the kon in the experiment with CD28 mIg [7] worked out at 176000 M⁻¹ s⁻¹. In addition, the koff in the experiment with CD28 mIg [8] was determined as 0.00104 s⁻¹. Moreover, the “ka (II)” value with CD28 mIg [9] is 0.00367. Also, in the experiment with CD28 mIg [10], the “kd (II)” value was determined as 0.0127 s⁻¹.

B5: 2E12 single-chain variable fragment (scFv) (scFv)
scFv: QVQLKESGPGSVAPSQSLSITCTVSGFSLTGYGVNWVRQPPGKGLEWLGMIWGDGSTDYNSALKSRLSITKDNSKSQVFLKMNSLQTDDTARYYCARDGYSNFHYYVMDYWGQGTSVTVSSGGGGSGGGGSGGGGSGGGGSDIVLTQSPASLAVSLGQRATISCRASESVEYYVTSLMQWYQQKPGQPPKLLISAASNVESGVPARFSGSGSGTDFSLNIHPVEEDDIAMYFCQQSRKVPWTFGGGTKLEIK
notes: Any tag on the free scFv used in SPR is not described; also called 2E12 scFv
In the experiment with CD28 mIg [1], B5 came in with a kon of 348000 M⁻¹ s⁻¹. In the experiment with CD28 mIg [2], this molecule yielded a koff of 0.00338 s⁻¹. The values for the Kd with CD28 mIg [3] and with CD28 mIg [4] were 9.69 nM and 39.6 nM, respectively.
